Source: a protein production outcome set (Wang et al. 2014)

Assay: label from the status in PepcDB records

Question: Which protein production does the source give for “MKTGDKQFAVIGLGRFGLAVCKELQDSGSQVLAVDINEDRVKEAAGFVSQAIVANCTHEETVAELKLDDYDMVMIAIGADVNASILATLIAKEAGVKSVWVKANDRFQARVLQKIGADHIIMPERDMGIRVARKMLDKRVLEFHPLGSGLAMTEFVVGSRLMGKTLSDLALCKVEGVQVLGFKRGPEIIKAPDMSTTLEIGDLIIVVGPQDKLANKLKSLLEHHHHHH” here?
Answer: failed

Question: For “MKTGKELKPGTVIRLENDPWLVQKAEFTKSGRNSAIMKTKLKNLLTGYKTEIVYSADDKLDDVILDRKEATLSFISGDTYTFMDTTDYTMYELNAEDIESVLPFVEEGMTDVCEAVFFDERLVSVELPTTIVRQVDYTEGSARGDTSGKVMKPAKLKNGTELSVADFIEIGDMIEIDTREGGSYKGRAKLEHHHHHH”, which protein production is on record?
Answer: failed

Question: For “MKTHFVKLLTQPESAWVQIRSEEQRKPWQYLPHLLLWALVPALCLLIGVTQVGWSLVDAERVRLSLASAMQLALLLYLTALLGTVLMGGFIRWMSRPFEARPTLNQCVGFAAYTATPYFIAGISGLYPSRWLAVAALLVASAYASYLLLVGLPKFMYLNQERGRLYAASVWGVGLLVLVTILVSMILFWFNVLAPQYLRPLAAL”, which protein production is on record?
Answer: failed

Question: For “MKTINVFHYDAFTNKPNMGNPAGIVLDADGLTEEEMQRIAEKVGFNETSFVLSSEVADIRMRYFTPGYEMDLCGHGTVGTIYALRERGLLEEKASLTIETKAGILPIQIGVNENGETFIKMRQTAPQFKDFAGSKEELAHSIGLEVNDLDVSLPIVYGSTGNWTVIVPVKNLDVCERMKPNNEVFPSVLKEIPNASIHPICLETYDEKVHMHGRHFSSAYAGTIEDPVTGTASGVMGAYYATYVEKDFDHEMELIVEQGQEIHKDGRVTVYVTKDVESEKLQIDIAGTAVYVKEFEVLI”, which protein production is on record?
Answer: failed

Question: Which protein production does the source give for “MKTKNKILPEQEEEKTFQYRTYGKGELALLYLPNILQQSAVDRFNEWIEAAPGLKERLLATGMNPRARYYTPAQVRLIIEVLQEP” here?
Answer: failed

Question: For “MKTLFWRTLVVIFIILGVIGAILPGMPTTVFLILAAWAASKGWPEMDEWLLNHPKYGPTLRDWRAHGTVPRKAKWIASIMMLISAIMMLFTNAPFWVKVFTDTTMLIVAIWLWLRPEPVKLPLESPTLHQNTEDEHV”, which protein production is on record?
Answer: failed

Question: With “MKTLLIIAHAPSENTKLMAEAVLKGAQHPDIEQVQTRWVRPLEATPEDVLSCDGIIMGTTENLGYMSGALKDFFDRCYYPCLEVKQGLPCALYVRAGNDGTGTCRAVETICTGLRWNWIQPPLVCRGDWQTLFIEQCEELGMTMAAGLDVGIY” as the sequence, how does the protein production read?
Answer: failed

Question: With “MKTNSEELTVFVQVVESGSFSRAAEQLEMANSAVSRIVKRLEEKLGVNLLNRTTRQLNLTEEGAQYFRRAQRILQEMAAAETEMLAVHEVPQGVLRVDSAMPMVLHLLAPLAAKFNERYPHIRLSLVSSEGYINLIERKVDIALRAGELDDSGLRARHLFDSHFRVVASPEYLAKHGTPQSAEDLANHQCLGFTEPGSLNTWAVLDAQGNPYKISPHFTASSGEILRSLCLSSCGIACLSDFLVDNDITEGKLIPLFAEQTSNKTHPFNAVYYSDKAVNLRLRVFLDFLVKELGKNMNRTNTK” as the sequence, how does the protein production read?
Answer: not failed

Question: For “MKTRKIPLRKSVVSNEVIDKRDLLRIVKNKEGQVFIDPTGKANGRGAYIKLDNAEALEAKKKKVFNRSFSMEVEESFYDELIAYVDHKVKRRELGLE”, which protein production is on record?
Answer: not failed

Question: With “MKTSIIILTCNNLRYSRRCIESIKKYTEKEAYEIIVVDNNSNDGTRNWLSKQKAIKKIYNNVNVGFPRGCNMGIKVACGSEVLLLNNDVVVTHNWLNNLRNCLYSSYEIGAVGPISNNCSNGQKINVRYDSIEDMHRFSKKYNISNKKKWTEVKRLIGFCFLIKRNVIRKVGLFDERFTPGNFEDDDYCIRMRKIGFRLMLCKDTFVHHYGSVSFKNTQYLKLLEVNKSKLEKKWGKSYDKLVLEHHHHHH” as the sequence, how does the protein production read?
Answer: failed

Question: With “MKTSRECFSSAGGSPMIRATSARSPPVPQSALPIGSLLSAPRPAFTETEAQGLARTHFGLDGTALPLTSERDQNFRLATPRGAFVLKIANAAEPRGVTECQTLALLHLEAVAPGLPVPRVIRTREGAPWTELAGGNLLRLLTWVEGEPLWRARRGAAQRRAVGLCLGGIAAALADFSHPSADHELLWDIRHAARLRALLPAIPDARTAVLAERVLDRFETAVAPRLADLPWQVVHNDMNPHNIMVDPANADRVAGVIDFGDLVRTARVCDLAVAGSYQVDPGDPAGTLADLVAGYHAANPLRPEEVELLPDLVAARMVTTIAIASARAAQQPDNAPYILRNLPASAAGLEALTALAPGAAAAALLRATEAA” as the sequence, how does the protein production read?
Answer: failed

Question: With “MKTTFLSLCFLLFFPLTGYSWQTAVTHISFHDLQRHRQLDSIIYYPTADQGETQLLSDTAVFRGISVLPNAPLAEGKFPLVVLSHGSGGNNTSLAWLADKLVQQGMVVVAANHPGSTTGDSIPAQSAQLWLQTEDISFIISTLLSDPRWKSALDEQAIGVIGHSKGGYSAIATLGATLSRPHFIASCQQQPEQPNCQFYTHAGVTLDQLSAEKFEGNYADKRLRFAIALDPGMVPFYQKSSLLHLSAPLLLINADYFISPNESLNLGGATWVKQLNQPGITAVTLTKSGHFDFLPLCKPAAGAILAEEGEAFICATPAVEREKLHQQTVQQILTYLQ” as the sequence, how does the protein production read?
Answer: failed

Question: With “MKTTKIVIASLVSLTMVSNPLLTFAATNDVIDNTTEITTDKETSSTQPTIKNTLKAGQTQSFNDWFPDDNFASEVAAAFEMQATDTISEEQLATLTSLDCHNSSITDMTGIEKLTGLTKLICTSNNITTLDLSQNTNLTYLACDSNKLTNLDVTPLTKLTYLNCDTNKLTKLDVSQNPLLTYLNCARNTLTEIDVSHNTQLTELDCHLNKKITKLDVTPQTQLTTLDCSFNKITELDVSQNKLLNRLNCDTNNITKLDLNQNIQLTFLDCSSNKLTEIDVTPLTQLTYFDCSVNPLTELDVSTLSKLTTLHCIQTDLLEIDLTHNTQLIYFQAEGCRKIKELDVTHNTQLYLLDCQAAGITELDLSQNPKLVYLYLNNTELTELDVSHNTKLKSLSCVNAHIQDFSSVGKIPALNNNFEAEGQTITMPKETLTNNSLTIAVSPDLLDQFGNPMNIEPGDGGVYDQATNTITWENLSTDNPAVTYTFTSENGAIVGTVTTPFEAPQPIKGEDVTVHYLDDKGEKLADDEVLSGNLDDPYTSSAKDIPDYTLTTTPDNATGTFTTTSQSVTYVYTKNIVAAEPVTVNYVDDTGKTLSPSEILNGNVGDTYNATAKQIDGYTLSAEPTNATGQFTSSAQTVNYIYTKNPAPEKGVVEIHYVDEDNKQLNSTTEISGTIGDNYTTEPKTIEGYTLTTTPGNATGTFTTGSQTVTYVYTKNIEAAEPITVNYVDANGKTLAPSETLNGNVGDTYKATAKQIDGYTLSAEPTNATGQFTSSAQTVNYIYTKNTNTDQPLPTKKPTNTTPTKPSNLKTTEVKKASDTLPKTGDSAPWKSALLGVFLSSTALVIWKKKK” as the sequence, how does the protein production read?
Answer: failed

Question: Which protein production does the source give for “MKTTQRTAGWYHVMAAVTVMIWGTTFVATKVLIKYGLSPVDILFYRFLLAYICIWFFSPRVLLAKSWQDELRFVGLGLCGGSLYFVAENTALGMTLASNVSLIICTTPILTALLAPFFYKGDKLKARLIGGSLMALIGVGLVVFNGSFILQLSPAGDILTLIAALMWAFYCLLLRRMNTHYPTLFITRKVFFYGLVTLLPLFLVYPLQTDIHILFRPVVALNLLFLGVIASMLCYIMWNTAVKQLGVVCATSYIYVVPLITLLTSAIVIDETITIVALLGSALILSGVYIAERGVNLKK” here?
Answer: failed

Question: With “MKTVKDAEIFCQYIAHEYLGKRNYKLLEDIIDKRITIIGTGAHEVSRNIQELMTALNKEAELWDGTFIIEDEWYQGTELADNLFVVIGQIEGRQNSNDQLVYSFSSRVTFIIEYHDMQWKIIHVHQSVPDYSQGDDEFFPQRIVEESNAQLKKEIAEKTKELEMSNQQVIYNLRHDYLTGILNRPSLEKEVTEAMSNHQYGVILVLDIDYFKEVNDNNGHPYGDEVLIKLANTMQESFKSGICGRIGGDEFIIYLALDDANYDAIEKTIKEFKQNWQKNITTIDRSSTITLSIGGAYYPKHGKNYQELWSNADKALYLSKNNGRNRISIYQL” as the sequence, how does the protein production read?
Answer: failed

Question: With “MKVALGGTFEPLHEGHKKLIDVAIKLGGRDITIGVTSDRMARARIRSVLPFAIRAENVKRYVMRKYGFEPEIVKITNPYGKTLDVDFEYLVVSPETYEMALKINQKREELGKRKITIVKVDWMMAEDGKPISSTRIKRGEIDRYGGII” as the sequence, how does the protein production read?
Answer: not failed

Question: With “MKVASGSTATAAAGPSCALKAGKTASGAGEVVRCLSEQSVAISRCAGGAGARLPALLDEQQVNVLLYDMNGCYSRLKELVPTLPQNRKVSKVEILQHVIDYIRDLQLELNSESEVGTPGGRGLPVRAPLSTLNGEISALTAEAACVPADDRILCR” as the sequence, how does the protein production read?
Answer: failed
